Test results reported in patent US20140356358A1 (Amgen, published 2014).

B1: L5 isolate with insertion SEQ ID NO: 494 (other)
chain: EPKSCDKTHTCPPCPAPELLGGPSVFLFPPKPKDTLMISRTPEVTCVVVDVSHEDPEVKFNWYVDGVEVHNAKTKPREEQYNSTYRVVSVLTVLHQDWLNGKEYKCKVSNKALPAPIEKTISKAKGQPREPQVYTLPPSRDELTKNQVSLTCLVKGFYPSDIAVEWESNGGCCPVYQHCGGGQPENNYKTTPPVLDSDGSFFLYSKLTVDKSRWQQGNVFSCSVMHEALHNHYTQKSLSLSPGK
B2: L5 isolate with insertion SEQ ID NO: 495 (other)
chain: EPKSCDKTHTCPPCPAPELLGGPSVFLFPPKPKDTLMISRTPEVTCVVVDVSHEDPEVKFNWYVDGVEVHNAKTKPREEQYNSTYRVVSVLTVLHQDWLNGKEYKCKVSNKALPAPIEKTISKAKGQPREPQVYTLPPSRDELTKNQVSLTCLVKGFYPSDIAVEWESNGGCLMSQDLCGGGQPENNYKTTPPVLDSDGSFFLYSKLTVDKSRWQQGNVFSCSVMHEALHNHYTQKSLSLSPGK
B3: L5 isolate with insertion SEQ ID NO: 496 (other)
chain: EPKSCDKTHTCPPCPAPELLGGPSVFLFPPKPKDTLMISRTPEVTCVVVDVSHEDPEVKFNWYVDGVEVHNAKTKPREEQYNSTYRVVSVLTVLHQDWLNGKEYKCKVSNKALPAPIEKTISKAKGQPREPQVYTLPPSRDELTKNQVSLTCLVKGFYPSDIAVEWESNGGCGGPYVFCGGGQPENNYKTTPPVLDSDGSFFLYSKLTVDKSRWQQGNVFSCSVMHEALHNHYTQKSLSLSPGK
B4: variant Fc-fragment Fc-5-66 (other)
chain: EPKSCDKTHTCPPCPAPELLGGPSVFLFPPKPKDTLMISRTPEVTCVVVDVSHEDPEVKFNWYVDGVEVHNAKTKPREEQYNSTYRVVSVLTVLHQDWLNGKEYKCKVSNKALPAPIEKTISKAKGQPREPQVYTLPPSRDELTKNQVSLTCLVKGFYPSDIAVEWESNGGCERFHHACGGGQPENNYKTTPPVLDSDGSFFLYSKLTVDKSRWQQGNVFSCSVMHEALHNHYTQKSLSLSPGK
notes: soluble elsewhere
B5: L6A isolate with insertion SEQ ID NO: 400 (other)
chain: EPKSCDKTHTCPPCPAPELLGGPSVFLFPPKPKDTLMISRTPEVTCVVVDVSHEDPEVKFNWYVDGVEVHNAKTKPREEQYNSTYRVVSVLTVLHQDWLNGKEYKCKVSNKALPAPIEKTISKAKGQPREPQVYTLPPSRDELGGCRAGYGDASCGGTKNQVSLTCLVKGFYPSDIAVEWESNGQPENNYKTTPPVLDSDGSFFLYSKLTVDKSRWQQGNVFSCSVMHEALHNHYTQKSLSLSPGK
B6: L6A isolate with insertion SEQ ID NO: 458 (other)
chain: EPKSCDKTHTCPPCPAPELLGGPSVFLFPPKPKDTLMISRTPEVTCVVVDVSHEDPEVKFNWYVDGVEVHNAKTKPREEQYNSTYRVVSVLTVLHQDWLNGKEYKCKVSNKALPAPIEKTISKAKGQPREPQVYTLPPSRDELGGCNPVSTGAYCGGTKNQVSLTCLVKGFYPSDIAVEWESNGQPENNYKTTPPVLDSDGSFFLYSKLTVDKSRWQQGNVFSCSVMHEALHNHYTQKSLSLSPGK
B7: L6A isolate with insertion SEQ ID NO: 465 (other)
chain: EPKSCDKTHTCPPCPAPELLGGPSVFLFPPKPKDTLMISRTPEVTCVVVDVSHEDPEVKFNWYVDGVEVHNAKTKPREEQYNSTYRVVSVLTVLHQDWLNGKEYKCKVSNKALPAPIEKTISKAKGQPREPQVYTLPPSRDELGGCFTNYASEKCGGTKNQVSLTCLVKGFYPSDIAVEWESNGQPENNYKTTPPVLDSDGSFFLYSKLTVDKSRWQQGNVFSCSVMHEALHNHYTQKSLSLSPGK
B8: L6A isolate with insertion SEQ ID NO: 466 (other)
chain: EPKSCDKTHTCPPCPAPELLGGPSVFLFPPKPKDTLMISRTPEVTCVVVDVSHEDPEVKFNWYVDGVEVHNAKTKPREEQYNSTYRVVSVLTVLHQDWLNGKEYKCKVSNKALPAPIEKTISKAKGQPREPQVYTLPPSRDELGGCDRFQNVNVCGGTKNQVSLTCLVKGFYPSDIAVEWESNGQPENNYKTTPPVLDSDGSFFLYSKLTVDKSRWQQGNVFSCSVMHEALHNHYTQKSLSLSPGK
B9: L6A isolate with insertion SEQ ID NO: 467 (other)
chain: EPKSCDKTHTCPPCPAPELLGGPSVFLFPPKPKDTLMISRTPEVTCVVVDVSHEDPEVKFNWYVDGVEVHNAKTKPREEQYNSTYRVVSVLTVLHQDWLNGKEYKCKVSNKALPAPIEKTISKAKGQPREPQVYTLPPSRDELGGCERHFPALFCGGTKNQVSLTCLVKGFYPSDIAVEWESNGQPENNYKTTPPVLDSDGSFFLYSKLTVDKSRWQQGNVFSCSVMHEALHNHYTQKSLSLSPGK
B10: L6A isolate with insertion SEQ ID NO: 474 (other)
chain: EPKSCDKTHTCPPCPAPELLGGPSVFLFPPKPKDTLMISRTPEVTCVVVDVSHEDPEVKFNWYVDGVEVHNAKTKPREEQYNSTYRVVSVLTVLHQDWLNGKEYKCKVSNKALPAPIEKTISKAKGQPREPQVYTLPPSRDELGGCAKDQHTGSCGGTKNQVSLTCLVKGFYPSDIAVEWESNGQPENNYKTTPPVLDSDGSFFLYSKLTVDKSRWQQGNVFSCSVMHEALHNHYTQKSLSLSPGK
B11: L6B isolate with insertion SEQ ID NO: 410 (other)
chain: EPKSCDKTHTCPPCPAPELLGGPSVFLFPPKPKDTLMISRTPEVTCVVVDVSHEDPEVKFNWYVDGVEVHNAKTKPREEQYNSTYRVVSVLTVLHQDWLNGKEYKCKVSNKALPAPIEKTISKAKGQPREPQVYTLPPSRDELGGCLKGMHGSACGGTKNQVSLTCLVKGFYPSDIAVEWESNGQPENNYKTTPPVLDSDGSFFLYSKLTVDKSRWQQGNVFSCSVMHEALHNHYTQKSLSLSPGK
B12: L6B isolate with insertion SEQ ID NO: 427 (other)
chain: EPKSCDKTHTCPPCPAPELLGGPSVFLFPPKPKDTLMISRTPEVTCVVVDVSHEDPEVKFNWYVDGVEVHNAKTKPREEQYNSTYRVVSVLTVLHQDWLNGKEYKCKVSNKALPAPIEKTISKAKGQPREPQVYTLPPSRDELGGCVQHKMGVVCGGTKNQVSLTCLVKGFYPSDIAVEWESNGQPENNYKTTPPVLDSDGSFFLYSKLTVDKSRWQQGNVFSCSVMHEALHNHYTQKSLSLSPGK
B13: L6B isolate with insertion SEQ ID NO: 440 (other)
chain: EPKSCDKTHTCPPCPAPELLGGPSVFLFPPKPKDTLMISRTPEVTCVVVDVSHEDPEVKFNWYVDGVEVHNAKTKPREEQYNSTYRVVSVLTVLHQDWLNGKEYKCKVSNKALPAPIEKTISKAKGQPREPQVYTLPPSRDELGGCNATLSGYLCGGTKNQVSLTCLVKGFYPSDIAVEWESNGQPENNYKTTPPVLDSDGSFFLYSKLTVDKSRWQQGNVFSCSVMHEALHNHYTQKSLSLSPGK
B14: L6B isolate with insertion SEQ ID NO: 454 (other)
chain: EPKSCDKTHTCPPCPAPELLGGPSVFLFPPKPKDTLMISRTPEVTCVVVDVSHEDPEVKFNWYVDGVEVHNAKTKPREEQYNSTYRVVSVLTVLHQDWLNGKEYKCKVSNKALPAPIEKTISKAKGQPREPQVYTLPPSRDELGGCYGKAGMRDCGGTKNQVSLTCLVKGFYPSDIAVEWESNGQPENNYKTTPPVLDSDGSFFLYSKLTVDKSRWQQGNVFSCSVMHEALHNHYTQKSLSLSPGK
B15: L6B isolate with insertion SEQ ID NO: 457 (other)
chain: EPKSCDKTHTCPPCPAPELLGGPSVFLFPPKPKDTLMISRTPEVTCVVVDVSHEDPEVKFNWYVDGVEVHNAKTKPREEQYNSTYRVVSVLTVLHQDWLNGKEYKCKVSNKALPAPIEKTISKAKGQPREPQVYTLPPSRDELGGCNQSSSREACGGTKNQVSLTCLVKGFYPSDIAVEWESNGQPENNYKTTPPVLDSDGSFFLYSKLTVDKSRWQQGNVFSCSVMHEALHNHYTQKSLSLSPGK
B16: L6B isolate with insertion SEQ ID NO: 460 (other)
chain: EPKSCDKTHTCPPCPAPELLGGPSVFLFPPKPKDTLMISRTPEVTCVVVDVSHEDPEVKFNWYVDGVEVHNAKTKPREEQYNSTYRVVSVLTVLHQDWLNGKEYKCKVSNKALPAPIEKTISKAKGQPREPQVYTLPPSRDELGGCGEYNYVGGCGGTKNQVSLTCLVKGFYPSDIAVEWESNGQPENNYKTTPPVLDSDGSFFLYSKLTVDKSRWQQGNVFSCSVMHEALHNHYTQKSLSLSPGK
B17: L6B isolate with insertion SEQ ID NO: 468 (other)
chain: EPKSCDKTHTCPPCPAPELLGGPSVFLFPPKPKDTLMISRTPEVTCVVVDVSHEDPEVKFNWYVDGVEVHNAKTKPREEQYNSTYRVVSVLTVLHQDWLNGKEYKCKVSNKALPAPIEKTISKAKGQPREPQVYTLPPSRDELGGCTLGSAPTLCGGTKNQVSLTCLVKGFYPSDIAVEWESNGQPENNYKTTPPVLDSDGSFFLYSKLTVDKSRWQQGNVFSCSVMHEALHNHYTQKSLSLSPGK
B18: L6B isolate with insertion SEQ ID NO: 469 (other)
chain: EPKSCDKTHTCPPCPAPELLGGPSVFLFPPKPKDTLMISRTPEVTCVVVDVSHEDPEVKFNWYVDGVEVHNAKTKPREEQYNSTYRVVSVLTVLHQDWLNGKEYKCKVSNKALPAPIEKTISKAKGQPREPQVYTLPPSRDELGGCEMMKNKSGCGGTKNQVSLTCLVKGFYPSDIAVEWESNGQPENNYKTTPPVLDSDGSFFLYSKLTVDKSRWQQGNVFSCSVMHEALHNHYTQKSLSLSPGK
B19: L6B isolate with insertion SEQ ID NO: 471 (other)
chain: EPKSCDKTHTCPPCPAPELLGGPSVFLFPPKPKDTLMISRTPEVTCVVVDVSHEDPEVKFNWYVDGVEVHNAKTKPREEQYNSTYRVVSVLTVLHQDWLNGKEYKCKVSNKALPAPIEKTISKAKGQPREPQVYTLPPSRDELGGCLRNFMKQSCGGTKNQVSLTCLVKGFYPSDIAVEWESNGQPENNYKTTPPVLDSDGSFFLYSKLTVDKSRWQQGNVFSCSVMHEALHNHYTQKSLSLSPGK

What was measured:
[1] = biological target: T1, human neonatal Fc receptor (hFcRn) (human, UniProt P55899 24-290; P61769 21-119); assay: phage ELISA pH 7.4
T1 construct: Biotinylated in the ELISA, Octet and yeast assays; also called human FcRn; huFcRn
T1 sequence (P55899 24-290 limits assumed, chain 1 of 2): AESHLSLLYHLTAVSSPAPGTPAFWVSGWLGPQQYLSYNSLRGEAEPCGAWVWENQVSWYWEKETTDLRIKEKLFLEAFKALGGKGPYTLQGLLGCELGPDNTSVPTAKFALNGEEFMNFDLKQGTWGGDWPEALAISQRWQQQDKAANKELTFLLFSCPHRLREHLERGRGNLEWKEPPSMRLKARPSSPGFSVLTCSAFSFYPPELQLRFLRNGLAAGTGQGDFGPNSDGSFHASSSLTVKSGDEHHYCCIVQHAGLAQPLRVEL
T1 sequence (P61769 21-119 limits assumed, chain 2 of 2): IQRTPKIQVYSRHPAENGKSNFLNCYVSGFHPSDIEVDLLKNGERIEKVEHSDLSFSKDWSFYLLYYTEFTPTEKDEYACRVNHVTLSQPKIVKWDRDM

[2] = biological target: T1, human neonatal Fc receptor (hFcRn); assay: phage ELISA pH 6
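Also: higher score means stronger binding and above about 3 to 5 exceeds background.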

| Binder | ELISA score [1] | ELISA score [2] |
| --- | --- | --- |
| B1 | 0.3 | 21.7 |
| B2 | 1 | 21.5 |
| B3 | 1.4 | 21.3 |
| B4 | 0.5 | 51.2 |
| B5 | 0.7 | 79.5 |
| B6 | 0.2 | 48.5 |
| B7 | 0.3 | 45.2 |
| B8 | 0.2 | 44 |
| B9 | 0.6 | 43.8 |
| B10 | 0.2 | 41.2 |
| B11 | 0.8 | 68.9 |
| B12 | 0.8 | 58.9 |
| B13 | 0.6 | 54.9 |
| B14 | 0.4 | 50.1 |
| B15 | 0.4 | 49.2 |
| B16 | 0.4 | 47.2 |
| B17 | 0.2 | 43.6 |
| B18 | 0.3 | 43.2 |
| B19 | 0.2 | 42.3 |
